# In paper PMC9956121:
# Positions count from the first letter of the chain named. Names and notes keep the numbering of the source.
# B1: human TAPBPR (TAP binding protein, related), luminal domain R105K; K211R; R270Q (protein)
# chain: KPHPAEGQWRAVDVVLDCFLAKDGAHRGALASSEDRARASLVLKQVPVLDDGSLEDFTDFQGGTLAQDDPPIIFEASVDLVQIPQAEALLHADSSGKEVTCEISKYFLQMTETTVKTAAWFMANMQVSGGGPSISLVMKTPRVTKNEALWHPTLNLPLSPQGTVRTAVEFQVMTQTQSLSFLLGSSASLDCGFSMAPGLDLISVEWRLQHRGRGQLVYSWTAGQGQAVRKGATLEPAQLGMARDASLTLPGLTIQDEGTYICQITTSLYQAQQIIQLNIQASPKVRLSLANEALLPTLICDIAGYYPLDVVVTWTREELGGSPAQVSGASFSSLRQSVAGTYSISSSLTAEPGSAGATYTCQVTHISLEEPLGASTQVVPPERR
# B2: human TAPBPR (TAP binding protein, related), luminal domain S104F; K211L; R270Q (protein)
# chain: B1 chain with S104F, K105R, R211L
# B3: human TAPBPR (TAP binding protein, related), luminal domain K211R; R270Q (protein)
# chain: B1 chain with K105R
# What was measured:
# [1] = molecular target: acetyl-6-formylpterin-loaded MR1 C262S/hβ2m, P61769; assay: SPR; conditions: chain shown with the change;; parent: est. 2.0; read off a plot
# [2] = molecular target: peptide-loaded HLA-A*02:01/hβ2m (photolabile peptide KILGFVFJV); assay: SPR; conditions: chain shown with the change;; parent: est. 0.98; read off a plot
Binder,Kd (Log10 KD (µM)) [1],Kd (Log10 KD (µM)) [2]
B1,1.8,
B2,,0.09
B3,,0.1
